The results in this text go back to PMC3985704.

The assay addresses T1, unmodified Dictyostelium Skp1A (Dictyostelium discoideum), P52285.
T1 chain: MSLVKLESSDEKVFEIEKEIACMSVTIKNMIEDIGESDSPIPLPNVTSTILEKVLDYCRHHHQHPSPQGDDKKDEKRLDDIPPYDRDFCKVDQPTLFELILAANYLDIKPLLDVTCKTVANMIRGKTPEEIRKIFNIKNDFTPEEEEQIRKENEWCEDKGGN
Description: SAXS. The following applies: remark: other sources report otherwise.

B1: unmodified Dictyostelium Skp1A, P52285 1-162 (natural protein)
chain: T1 chain
Take B1: the stoichiometry N – broadly, a count of units in the complex or per binding partner – amounted to 2.
